Assay results as given in article PMC2528291 (Journal of molecular biology, 2001).
Read-outs that look alike come from different tables or passages of the source.

Tests used:
Experiment in all cases: SEC
[1] = molecular target: flagellin (FliC) of S. typhimurium SJW1103 (S. typhimurium (endogenous in SJW1103)) (UniProt P06179)
[2] = molecular target: the molecule itself
[3] = molecular target: the molecule itself; remark: listed apart in the source

Sequence of flagellin (FliC) of S. typhimurium SJW1103 (S. typhimurium (endogenous in SJW1103)) (P06179 whole entry): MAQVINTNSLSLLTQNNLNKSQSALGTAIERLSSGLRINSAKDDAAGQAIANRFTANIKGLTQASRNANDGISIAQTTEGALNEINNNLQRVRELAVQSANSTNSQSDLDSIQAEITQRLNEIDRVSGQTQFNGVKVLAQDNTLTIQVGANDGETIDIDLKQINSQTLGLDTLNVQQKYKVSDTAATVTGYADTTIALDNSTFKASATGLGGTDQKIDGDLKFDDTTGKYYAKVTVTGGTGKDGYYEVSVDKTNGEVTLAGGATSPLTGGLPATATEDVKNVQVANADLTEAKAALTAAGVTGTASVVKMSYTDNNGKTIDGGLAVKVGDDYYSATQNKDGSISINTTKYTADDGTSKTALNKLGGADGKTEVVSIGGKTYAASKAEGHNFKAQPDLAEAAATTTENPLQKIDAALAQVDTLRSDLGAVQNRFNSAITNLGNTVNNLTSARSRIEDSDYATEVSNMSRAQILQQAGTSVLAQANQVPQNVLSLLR

Question: “His6-FliS (from pET-FliS) (from UniProt P26609 1-135) (natural protein)” was tested. Which stoichiometry N (FliS per FliC) [1] did it give?
Answer: 2

B1: FliS (native, cytosolic, of S. typhimurium SJW1103) (natural protein, S. typhimurium (endogenous in SJW1103), UniProt P26609 1-135, looked up)
chain: MYTASGIKAYAQVSVESAVMSASPHQLIEMLFDGANSALVRARLFLEQGDVVAKGEALSKAINIIDNGLKAGLDQEKGGEIATNLSELYDYMIRRLLQANLRNDAQAIEEVEGLLSNIAEAWKQISPKASFQESR
Question: B1 was tested. Which “stoichiometry N” value [2] did it give?
Answer: 2

B2: His6-FliS (from pET-FliS) (natural protein, S. typhimurium, UniProt P26609 1-135, looked up)
chain: B1 chain
modifications: [35S]methionine label (in the affinity blots only)
Question: With B2 as the molecule, how does the “stoichiometry N” value [3] read?
Answer: 2
